Consider one substance from US7033773B1, “Screening assays for G protein coupled receptor agonists and antagonists” (The General Hospital Corporation, priority 1997, dated 2006).

The target of experiment [1] is T1, human PTH/PTHrP receptor (Homo sapiens, UniProt Q03431).
T1 sequence (Q03431 27-593): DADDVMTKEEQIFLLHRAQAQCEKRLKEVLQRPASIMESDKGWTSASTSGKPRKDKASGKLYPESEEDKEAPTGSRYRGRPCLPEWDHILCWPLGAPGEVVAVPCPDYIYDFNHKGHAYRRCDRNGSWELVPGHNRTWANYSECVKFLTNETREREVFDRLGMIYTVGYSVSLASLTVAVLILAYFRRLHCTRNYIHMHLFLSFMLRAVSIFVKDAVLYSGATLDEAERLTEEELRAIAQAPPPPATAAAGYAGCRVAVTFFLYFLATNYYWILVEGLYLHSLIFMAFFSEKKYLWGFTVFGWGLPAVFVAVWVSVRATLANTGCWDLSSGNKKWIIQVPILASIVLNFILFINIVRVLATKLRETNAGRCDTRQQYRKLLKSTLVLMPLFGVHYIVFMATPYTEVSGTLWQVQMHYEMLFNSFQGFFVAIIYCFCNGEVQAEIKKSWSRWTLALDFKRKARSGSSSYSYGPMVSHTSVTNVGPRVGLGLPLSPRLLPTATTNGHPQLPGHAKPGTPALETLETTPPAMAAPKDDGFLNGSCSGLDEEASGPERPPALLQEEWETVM
Nature of the experiment: Cellular phosphate uptake in LLC-PK1 cells expressing human PTHR. The conditions noted are these: HKRK B28 and HKRK B7 cells; peptides 1000 nM, 6 hr. In kind it is cell-based. Also noted: transfected with a full-length human PTH/PTHrP receptor cDNA; expressed in transfected cells. On the procedure: FIG. 8. Regulation of phosphate uptake by PTH in HKRK B7 and HKRK B28 cells. […] Results are expressed as percentage of basal, and each bar represents the mean±SEM of a representative experiment performed in triplicate. Similar results were obtained from at least 5 individual experiments. Cells were seeded into 24-well plates at a density of 2.5×10^5 cells/well and cultured for a further 2 days before study. Twenty four hours before assay, cells were refed with 0.5 ml of DMEM containing 0.1% BSA. The next day, cells were refed with serum-free medium (DMEM+0.1% BSA) containing drugs or peptides, and the incubations were continued at 37° C. under 5% CO2 in air for another 6 hr. Cells then were washed with prewarmed Buffer B without BSA and Na2HPO4 and then were incubated at 37° C. for 5 min in 0.25 ml of the same buffer containing [^32P]orthophosphate (4 uCi/ml) and 0.1 mM Na2HPO4. Phosphate uptake was arrested by adding 1 ml of ice-cold sodium-free “stop buffer” [10 mM HEPES (pH 7.4), 140 mM choline chloride, and 5 mM sodium arsenate], followed by two further washes with same buffer. The drained cell layer then was solubilized in 0.5 ml of Lysis Buffer, and cell-associated radioactivity was determined by Cerenkov counting, as previously described (Guo, J., et al., Endocrinology 136:3884-3891 (1995)).

The target in experiment [2] is T1, human PTH/PTHrP receptor. Kind of experiment: Cytosolic free calcium (fura-2) in LLC-PK1 cells expressing human PTHR. The note with it: 100 nM peptide; HKRK B7 cells.
Procedure: Cytosolic free calcium was measured in fura 2AM-loaded confluent monolayers of cells.
Cytosolic free calcium was measured by dual fluorescence in cells loaded with the Ca^2+-sensitive intracellular probe fura-2. Cells were seeded onto glass coverslips at a density of 40,000-600,000/cm^2 and incubated for 2 days as described above. Coverslips were washed twice with PBS before loading in phosphate-free Buffer B containing 4 uM of fura-2/AM (Molecular Probes, Eugene, Oreg.) for 30 min at room temperature (22° C.). After washing twice with fura-free Buffer B, the coverslips were mounted in a cuvette containing 2 ml of phosphate-free Buffer B at 37° C. and the emission at 510 nm in response to alternating excitation at 340 and 380 nm was monitored using a ratiometric PTI Deltascan fluorescence spectrometer with excitation and emission bandwidths of 2 nm. After achieving a stable baseline, agonists were introduced by exchange into 2 ml of fresh buffer to which 10-20 ul of concentrated agonist stock (or vehicle alone) had been added. Peptide stocks were prepared in 0.1% trifluoroacetic acid, ionomycin and phorbol esters were dissolved in dimethyl sulfoxide and all other additives were prepared in water. Maximum and minimum fluorescence signals were obtained by exposure to modified buffers containing 1 uM ionomycin plus 20 mM calcium or 2 mM EGTA in the nominal absence of calcium, respectively, and autofluorescence was estimated from signals obtained in the presence of ionomycin plus 2.5 mM MnCl2.
Experiment [3] deals with T1, human PTH/PTHrP receptor. Nature of the experiment: IP3 production (PLC activation) in LLC-PK1 cells expressing human PTHR. In kind it is cell-based. Also noted: transfected with a full-length human PTH/PTHrP receptor cDNA; expressed in transfected cells. The conditions noted are these: for formation of IP3 (activation of phospholipase-C): peptide 1000 nM, mean±SEM. On the procedure: Cells were seeded into 24-well plates at a density of 2.5×10^5 cells/well and cultured for a further 2 days before study. The cells were labeled at 37° C. for 16 h before assay with 3 uCi/ml of [^3H]myo-inositol in assay medium (serum- and inositol-free DMEM (GIBCO-BRL, Grand Island, N.Y.) supplemented with 0.1% BSA). After washing the cells with prewarmed assay medium containing 30 mM LiCl, they were incubated with 0.25 ml of assay medium containing 30 mM LiCl and stimulators (or vehicle) at 37° C. for various intervals(1-30 min). IP3 formation was arrested by aspiration and immediate addition of 0.5 ml of ice-cold 5% TCA. The acid extracts then were extracted twice with two volumes of water-saturated ether and adjusted to pH 7.4 with concentrated NaOH and Tris base (final concentration=10 mM) prior to chromatography on AG 1×8 anion-exchange columns (Bio-Rad, Richmond, Calif.), as previously described (Guo, J., et al., Endocrinology 136:3884-3891 (1995)). After eluting other fractions (free [^3H]myo-inositol, glycerophosphate inositol, IP1, and IP2), IP3 fractions were collected and their content of radioactivity was determined by liquid scintillation spectrometry (Beckman, model LS 6000IC).
HKRK B7 cells and HKRK B28 cells, previously loaded with [^3H]myo-inositol, were incubated with each peptide (1000 nM) for 30 min or 4 min, respectively. The formation of IP3 is expressed as a percentage of the amount measured in vehicle-treated controls. Values shown are means±SEM of triplicate determinations.

hPTH(1-31): in the experiment with human PTH/PTHrP receptor [1], the “maximal activation of phosphate uptake (in words)” value was “comparable maximal activation of phosphate uptake”. The “cytosolic free calcium transients” value in the experiment with human PTH/PTHrP receptor [2] was “fully activated cytosolic free calcium transients”. Besides, the “activation of PLC (in words)” value in the experiment with human PTH/PTHrP receptor [3] (1000 nM, HKRK B28 at 4 min and HKRK B7 at 30 min) was “stimulated PLC equivalently to hPTH(1-34)”. For the same substance, the “formation of IP3 (activation of phospholipase-C)” value in the experiment with human PTH/PTHrP receptor [3] (HKRK B7 cells, 30 min stimulation) is 275 ± 21 percentage of vehicle-treated; in the experiment with human PTH/PTHrP receptor [3] (HKRK B28 cells, 4 min stimulation), 170 ± 14 percentage of vehicle-treated.
